{
  "source": "the RNAGym collection of RNA variant scans (doi:10.7554/elife.80360)",
  "parents": {"B1": {"name": "HDV Ribozyme (parent)", "chain": "GGCCGGCAUGGUCCCAGCCUCCUCGCUGGCGCCGGCUGGGCAACAUUCCGAGGGGACCGUCCCCUCGGUAAUGGCGAAUGGGACCCA"}},
  "data": [
    {"variants_of": "B1", "experiment": "self-cleavage, relative activity (ratio to wild type); higher = more cleavage; co-transcriptional", "values": [
      {"variant": "GGCCGUCAUGGUCCCAGCGUCCUCGCUGGCGCCGGCUGGGCAACAUUCCGAGGGGACCGUCCCCUCGGUAAUGGCGAAUGGGACCCA", "note": "[G6U C19G]", "self-cleavage": 0.0692},
      {"variant": "GGCCGUCAUGGUCCCAGCAUCCUCGCUGGCGCCGGCUGGGCAACAUUCCGAGGGGACCGUCCCCUCGGUAAUGGCGAAUGGGACCCA", "note": "[G6U C19A]", "self-cleavage": 0.0326},
      {"variant": "GGCCGUCAUGGUCCCAGCCUCCUCGCUGGCGCCGGCUGGGCAACAUUCCGAGGGGACCGUCCCCUCGGUAAUGGCGAAUGGGACCCC", "note": "[G6U A87C]", "self-cleavage": 0.592},
      {"variant": "GGCCGUCAUGGUCCCAGCCUCCUCGCUGGCGCCGGCUGGGCAACAUUCCGAGGGGACCGUCCCCUCGGUAAUGGCGAAUGGGACCCG", "note": "[G6U A87G]", "self-cleavage": 0.377},
      {"variant": "GGCCGCCAUGGUCCCAGCCUCCUCGCUGGCGCCGGCUGGGCAACAUUCCGAGGGGACCGUCCCCUCGGGAAUGGCGAAUGGGACCCA", "note": "[G6C U69G]", "self-cleavage": 0.166},
      {"variant": "GGCCGUCAUGGUCCCAGCCUCCUCGCUGGCGCCGGCUGGGCGACAUUCCGAGGGGACCGUCCCCUCGGUAAUGGCGAAUGGGACCCA", "note": "[G6U A42G]", "self-cleavage": 0.214},
      {"variant": "GGCCGUCAUGGUCCCAGCCUCCUCGCUGGCGCCGGCUGGGCCACAUUCCGAGGGGACCGUCCCCUCGGUAAUGGCGAAUGGGACCCA", "note": "[G6U A42C]", "self-cleavage": 0},
      {"variant": "GGCCGCCAUGGUCCCAGCCUCCUCGCUGGCGCCGGCUGGGCAACAUUCCGAGGGGACCGUCCCCUCGGUAAUGGCGAAAGGGACCCA", "note": "[G6C U79A]", "self-cleavage": 0.119},
      {"variant": "GGCCGUCAUGGUCCCAGCCUCCUCGCUGGCGCCGGCUGGGCAACAUUGCGAGGGGACCGUCCCCUCGGUAAUGGCGAAUGGGACCCA", "note": "[G6U C48G]", "self-cleavage": 0.374},
      {"variant": "GGCCGUCAUGGUCCCAGCCUCCUCGCUGGCGCCGGCUGGGCAACAUUCCGAGGGGACCGUCCCCUCGGUAAUGGCGAAUGGGACCCA", "note": "[G6U]", "self-cleavage": 0.63},
      {"variant": "GGCCGUCAUGGUCCCAGCCUCCUCGCUGGCGCCGGCUGGGCAACAUUCAGAGGGGACCGUCCCCUCGGUAAUGGCGAAUGGGACCCA", "note": "[G6U C49A]", "self-cleavage": 0.582},
      {"variant": "GGCCGUCAUGGUCCCAGCCUCCUCGCUGGCGCCGGCUGGGCAACAUUCGGAGGGGACCGUCCCCUCGGUAAUGGCGAAUGGGACCCA", "note": "[G6U C49G]", "self-cleavage": 0.306},
      {"variant": "GGCCGUCAUGGUCCCAGCCUCCUCGCUGGCGCCGGCUGGGCAACAUUCCGAGGGGACCGUCCCCUCGGUAUUGGCGAAUGGGACCCA", "note": "[G6U A71U]", "self-cleavage": 0.415},
      {"variant": "GGCCGCCAUGGUCCCAGCCUCCUCGCUGGCGCCGGCUGGGCAACAUUCCGAGGGGACCGUCCCCCCGGUAAUGGCGAAUGGGACCCA", "note": "[G6C U65C]", "self-cleavage": 0.277},
      {"variant": "GGCCGCCAUGGUCCCAGCCUCCUCGCUGGCGCCGGCUGGGCAACAUGCCGAGGGGACCGUCCCCUCGGUAAUGGCGAAUGGGACCCA", "note": "[G6C U47G]", "self-cleavage": 0.158},
      {"variant": "GGCCGCCAUGGUCCCAGCCUCCUCGCUGGCGCCGGCUGGGCAACAUACCGAGGGGACCGUCCCCUCGGUAAUGGCGAAUGGGACCCA", "note": "[G6C U47A]", "self-cleavage": 0.0875},
      {"variant": "GGCCGUCAUGGUCCCAGCCUCCUCGGUGGCGCCGGCUGGGCAACAUUCCGAGGGGACCGUCCCCUCGGUAAUGGCGAAUGGGACCCA", "note": "[G6U C26G]", "self-cleavage": 0.364},
      {"variant": "GGCCGUCAUGGUUCCAGCCUCCUCGCUGGCGCCGGCUGGGCAACAUUCCGAGGGGACCGUCCCCUCGGUAAUGGCGAAUGGGACCCA", "note": "[G6U C13U]", "self-cleavage": 0.249},
      {"variant": "GGCCGUCAUGGUCCCAGCCUCCUCGCUGGCGCCGGCUGGGCAACAUUCCGAGGGGACCGUCCCCUCGGUAAUGGCGACUGGGACCCA", "note": "[G6U A78C]", "self-cleavage": 0.252},
      {"variant": "GGCCGUAAUGGUCCCAGCCUCCUCGCUGGCGCCGGCUGGGCAACAUUCCGAGGGGACCGUCCCCUCGGUAAUGGCGAAUGGGACCCA", "note": "[G6U C7A]", "self-cleavage": 0.227},
      {"variant": "GGCCGUCAUGGUCCCAGCCUCCUCGCUGGCGCCGGCUGGGCAAUAUUCCGAGGGGACCGUCCCCUCGGUAAUGGCGAAUGGGACCCA", "note": "[G6U C44U]", "self-cleavage": 0.162},
      {"variant": "GGCCGUCUUGGUCCCAGCCUCCUCGCUGGCGCCGGCUGGGCAACAUUCCGAGGGGACCGUCCCCUCGGUAAUGGCGAAUGGGACCCA", "note": "[G6U A8U]", "self-cleavage": 0.403},
      {"variant": "GGCCGUCGUGGUCCCAGCCUCCUCGCUGGCGCCGGCUGGGCAACAUUCCGAGGGGACCGUCCCCUCGGUAAUGGCGAAUGGGACCCA", "note": "[G6U A8G]", "self-cleavage": 0.346},
      {"variant": "GGCCGUCAUGGUCCCAGCCUCCUCGCUGGCGCCGGCUGGGCAACAUUCCGAGGGGACCGUCCCCUCGGUGAUGGCGAAUGGGACCCA", "note": "[G6U A70G]", "self-cleavage": 0.571},
      {"variant": "GGCCGUCAUGGUCCCAGCCUCCUCGCUGGCGCCGGCUGGGCAACAUUCCGAGGGGUCCGUCCCCUCGGUAAUGGCGAAUGGGACCCA", "note": "[G6U A56U]", "self-cleavage": 0.703},
      {"variant": "GGCCGUCAUGGUCCCAGCCUCCUGGCUGGCGCCGGCUGGGCAACAUUCCGAGGGGACCGUCCCCUCGGUAAUGGCGAAUGGGACCCA", "note": "[G6U C24G]", "self-cleavage": 0.0462},
      {"variant": "GGCCGCCAUGGUCCCAGCCUCCUCGCUGGCGCCGGCUGGGCAACACUCCGAGGGGACCGUCCCCUCGGUAAUGGCGAAUGGGACCCA", "note": "[G6C U46C]", "self-cleavage": 0.145},
      {"variant": "GGCCGUCAUGGUCCCAGCCUCAUCGCUGGCGCCGGCUGGGCAACAUUCCGAGGGGACCGUCCCCUCGGUAAUGGCGAAUGGGACCCA", "note": "[G6U C22A]", "self-cleavage": 0.0489},
      {"variant": "GGCCGUCAUGGUCCGAGCCUCCUCGCUGGCGCCGGCUGGGCAACAUUCCGAGGGGACCGUCCCCUCGGUAAUGGCGAAUGGGACCCA", "note": "[G6U C15G]", "self-cleavage": 0.0875},
      {"variant": "GGCCGCCAUGGUCCCAGCCUCCUCGCUGGCGCCGGCUGGGCAACAUUCCGAGGGGACCGUCCCCUCGGUAACGGCGAAUGGGACCCA", "note": "[G6C U72C]", "self-cleavage": 0.0831},
      {"variant": "GGCCGCCAUGGUCCCAGCCUCCUCGCUGGCGCCGGCUGGGCAACAUUCCGAGGGGACCGUCCCCUCGGUAAAGGCGAAUGGGACCCA", "note": "[G6C U72A]", "self-cleavage": 0.0755},
      {"variant": "GGCCGCCAUGGUCCCAGCCUCCUCGCUGGCGCCGGCCGGGCAACAUUCCGAGGGGACCGUCCCCUCGGUAAUGGCGAAUGGGACCCA", "note": "[G6C U37C]", "self-cleavage": 0.923}
    ]}
  ]
}
